From patent CN116496403A (ZEDA BIOMEDICAL CO LTD, dated 2023)
Several values for one entry are separate records, joined by “and”; a condition that tells them apart may be missing. Equal entries are not always repeated.

Tests used:
PDL1-ECD-His蛋白 = biological target: T1, PDL1-ECD-His蛋白 (UniProt Q9NZQ7 19-238); assay: ELISA, PDL1-ECD-His coated, HRP goat anti-human Fc
T1 construct: extracellular domain; Expressed in HEK-293E cells; also called PD-L1抗原; PDL1抗原

[1] = biological target: PD-L1 on PD-L1 aAPC/CHO-K1 cells (UniProt Q9NZQ7 19-290); assay: cell-based or functional assay
IGF1R-ECD-His蛋白 [2] = biological target: T2, IGF1R-ECD-His蛋白 (UniProt P08069 31-935); assay: sandwich ELISA: PDL1-ECD-hFc coated, antibody, then IGF1R-ECD-His, HRP-anti-His
T2 construct: extracellular domain; Expressed in HEK-293E cells; also called IGF1R抗原

IGF1R-ECD-His蛋白 [3] = biological target: T2, IGF1R-ECD-His蛋白; assay: ELISA, IGF1R-ECD-His coated, HRP-anti-hFc
IGF1R on BxPC3 cells = IGF1R on BxPC3 cells (human, UniProt P08069 31-1367); assay: cell-based or functional assay
PDL1-ECD-hFc蛋白 = biological target: T3, PDL1-ECD-hFc蛋白 (UniProt Q9NZQ7 19-238); assay: sandwich ELISA: PDL1-ECD-hFc coated, antibody, then IGF1R-ECD-His, HRP-anti-His
T3 construct: extracellular domain; PDL1-ECD-His with the C-terminal tag changed to hFc; also called PDL1抗原; not shown: hFc tag at the C-terminus in place of the His tag
T3 sequence (Q9NZQ7 19-238): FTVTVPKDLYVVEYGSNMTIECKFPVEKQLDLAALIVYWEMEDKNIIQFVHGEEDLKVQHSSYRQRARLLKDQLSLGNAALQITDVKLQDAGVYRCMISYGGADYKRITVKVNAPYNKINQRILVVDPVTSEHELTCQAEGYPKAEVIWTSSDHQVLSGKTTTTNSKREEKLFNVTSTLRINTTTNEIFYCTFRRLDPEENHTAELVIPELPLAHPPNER

T2 sequence (P08069 31-935): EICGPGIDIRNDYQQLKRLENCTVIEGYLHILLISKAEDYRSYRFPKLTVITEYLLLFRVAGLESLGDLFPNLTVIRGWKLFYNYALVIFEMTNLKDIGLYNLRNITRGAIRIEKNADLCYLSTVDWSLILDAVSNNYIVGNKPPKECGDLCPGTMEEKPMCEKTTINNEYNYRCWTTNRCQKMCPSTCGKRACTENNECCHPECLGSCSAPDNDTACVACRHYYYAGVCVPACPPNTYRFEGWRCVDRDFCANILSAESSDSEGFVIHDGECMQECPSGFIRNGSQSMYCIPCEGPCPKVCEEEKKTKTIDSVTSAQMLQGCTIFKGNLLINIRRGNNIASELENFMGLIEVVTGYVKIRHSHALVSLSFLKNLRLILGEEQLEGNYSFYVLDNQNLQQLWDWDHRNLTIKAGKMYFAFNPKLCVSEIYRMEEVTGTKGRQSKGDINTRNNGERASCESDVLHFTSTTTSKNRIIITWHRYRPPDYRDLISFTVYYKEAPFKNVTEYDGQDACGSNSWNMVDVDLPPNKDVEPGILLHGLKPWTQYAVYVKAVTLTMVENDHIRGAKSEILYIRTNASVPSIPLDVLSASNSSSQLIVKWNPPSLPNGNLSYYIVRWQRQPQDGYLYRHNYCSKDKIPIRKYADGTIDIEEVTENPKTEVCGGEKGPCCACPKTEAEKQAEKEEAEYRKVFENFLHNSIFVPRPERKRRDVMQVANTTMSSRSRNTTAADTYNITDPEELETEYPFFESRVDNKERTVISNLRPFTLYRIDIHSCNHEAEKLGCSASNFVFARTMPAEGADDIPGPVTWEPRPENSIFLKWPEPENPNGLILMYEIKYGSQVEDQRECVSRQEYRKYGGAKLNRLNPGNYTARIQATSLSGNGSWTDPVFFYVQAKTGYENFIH
Chain of PD-L1 on PD-L1 aAPC/CHO-K1 cells (Q9NZQ7 19-290): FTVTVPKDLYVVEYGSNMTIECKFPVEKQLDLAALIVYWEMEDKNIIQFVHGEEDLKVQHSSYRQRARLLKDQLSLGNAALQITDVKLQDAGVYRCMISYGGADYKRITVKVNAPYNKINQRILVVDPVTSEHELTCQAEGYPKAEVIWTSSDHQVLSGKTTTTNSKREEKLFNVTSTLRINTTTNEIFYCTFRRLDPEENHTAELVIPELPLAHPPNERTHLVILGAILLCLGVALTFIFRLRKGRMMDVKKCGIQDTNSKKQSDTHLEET
Chain of IGF1R on BxPC3 cells (P08069 31-1367): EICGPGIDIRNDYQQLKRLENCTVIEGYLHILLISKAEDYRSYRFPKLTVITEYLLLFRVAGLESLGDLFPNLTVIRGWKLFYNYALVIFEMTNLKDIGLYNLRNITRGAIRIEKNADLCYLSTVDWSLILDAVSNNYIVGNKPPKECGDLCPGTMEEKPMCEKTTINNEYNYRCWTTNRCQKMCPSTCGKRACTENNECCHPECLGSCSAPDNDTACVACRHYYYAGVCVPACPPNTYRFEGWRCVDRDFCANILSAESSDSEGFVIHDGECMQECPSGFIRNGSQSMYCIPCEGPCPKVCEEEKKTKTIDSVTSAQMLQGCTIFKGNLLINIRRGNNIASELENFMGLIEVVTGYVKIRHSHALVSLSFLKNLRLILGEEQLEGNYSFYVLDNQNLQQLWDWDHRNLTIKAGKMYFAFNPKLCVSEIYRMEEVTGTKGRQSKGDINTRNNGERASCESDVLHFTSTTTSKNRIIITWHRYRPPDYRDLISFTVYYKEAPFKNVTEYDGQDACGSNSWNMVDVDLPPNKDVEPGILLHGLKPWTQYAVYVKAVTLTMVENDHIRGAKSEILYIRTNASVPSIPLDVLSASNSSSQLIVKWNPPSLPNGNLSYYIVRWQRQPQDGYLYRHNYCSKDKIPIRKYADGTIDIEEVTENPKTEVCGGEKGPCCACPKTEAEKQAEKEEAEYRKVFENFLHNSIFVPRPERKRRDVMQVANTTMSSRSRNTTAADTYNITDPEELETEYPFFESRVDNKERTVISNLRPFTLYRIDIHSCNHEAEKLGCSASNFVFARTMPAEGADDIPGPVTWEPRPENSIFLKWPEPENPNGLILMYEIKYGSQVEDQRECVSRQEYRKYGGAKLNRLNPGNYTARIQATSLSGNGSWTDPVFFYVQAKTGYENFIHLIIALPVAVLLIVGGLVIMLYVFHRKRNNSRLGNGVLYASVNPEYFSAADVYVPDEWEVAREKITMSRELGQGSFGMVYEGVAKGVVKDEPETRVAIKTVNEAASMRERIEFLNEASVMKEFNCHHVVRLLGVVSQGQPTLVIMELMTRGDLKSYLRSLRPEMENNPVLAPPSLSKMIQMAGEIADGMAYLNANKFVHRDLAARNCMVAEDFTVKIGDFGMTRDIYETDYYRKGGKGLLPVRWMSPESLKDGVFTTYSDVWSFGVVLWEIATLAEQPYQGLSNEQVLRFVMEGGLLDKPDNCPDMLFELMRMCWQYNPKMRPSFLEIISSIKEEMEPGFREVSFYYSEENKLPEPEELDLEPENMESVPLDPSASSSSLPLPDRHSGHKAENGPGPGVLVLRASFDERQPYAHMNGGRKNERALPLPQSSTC
T1 sequence (Q9NZQ7 other isoform, or with tags, fused parts or gaps): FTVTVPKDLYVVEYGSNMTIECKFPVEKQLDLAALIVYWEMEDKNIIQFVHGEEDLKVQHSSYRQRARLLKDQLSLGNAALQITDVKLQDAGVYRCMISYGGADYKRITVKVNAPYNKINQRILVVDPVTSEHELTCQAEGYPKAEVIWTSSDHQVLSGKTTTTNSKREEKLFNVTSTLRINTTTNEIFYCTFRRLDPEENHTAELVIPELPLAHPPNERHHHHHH

| Binder | EC50 (PDL1-ECD-His蛋白) | EC50, PD-1/PD-L1 Blockade Bioassay (luciferase reporter) [1] | binding result (IGF1R-ECD-His蛋白 [2]) | EC50 (IGF1R-ECD-His蛋白 [3]) | IC50, inhibition of BxPC3 proliferation with IGF-1 100 ng/mL (CCK8) (IGF1R on BxPC3 cells) | binding result (PDL1-ECD-hFc蛋白) |
| --- | --- | --- | --- | --- | --- | --- |
| 抗PD-L1单抗(anti-PDL1 mAb) (antibody, human IgG1, kappa, V domains shown, also called 抗人PD-L1单抗) VH: QVQLQQSGGGLVKPSQSLSLTCTVSGFSLTSYGVHWVRQPPGKGLEWIGLIWSGGGTDYNPSLKSRLTISRDTSKNQVSFKISSLTAADTAVYYCARQLGLRAMDYWGQGTSVTVSS VL: EIVLTQSPDFLSVTPKEKVTITCRASQSIGTTIHWYQQKPDQSPKLLIKYASQSFSGVPSRFSGSGSGTDFTLTINSVEAEDAATYYCQQSNSWPLTFGAGTKLEIKR | 0.0836 nM and 0.145 nM | 0.363 nM and 0.901 nM | no binding (tested: 起始浓度为30nM) |  |  |  |
| 抗PDL1×IGF1R双特异性抗体 D31-1 (bispecific antibody, human IgG1, lambda, A12 IgG1 with anti-PDL1 scFv1 (VL-L1-VH) at the C-terminus of each heavy chain) heavy: not shown light: SSELTQDPAVSVALGQTVRITCQGDSLRSYYATWYQQKPGQAPILVIYGENKRPSGIPDRFSGSSSGNTASLTITGAQAEDEADYYCKSRDGSGQHLVFGGGTKLTVLGQPKAAPSVTLFPPSSEELQANKATLVCLISDFYPGAVTVAWKADSSPVKAGVETTTPSKQSNNKYAASSYLSLTPEQWKSHRSYSCQVTHEGSTVEKTVAPAECS | 0.391 nM | 2.98 nM |  | 0.193 nM | 1.96 nM |  |
| 抗PDL1×IGF1R双特异性抗体 D31-2 (bispecific antibody, human IgG1, lambda, A12 IgG1 with anti-PDL1 scFv2 (VH-L1-VL) at the C-terminus of each heavy chain) heavy: not shown light: SSELTQDPAVSVALGQTVRITCQGDSLRSYYATWYQQKPGQAPILVIYGENKRPSGIPDRFSGSSSGNTASLTITGAQAEDEADYYCKSRDGSGQHLVFGGGTKLTVLGQPKAAPSVTLFPPSSEELQANKATLVCLISDFYPGAVTVAWKADSSPVKAGVETTTPSKQSNNKYAASSYLSLTPEQWKSHRSYSCQVTHEGSTVEKTVAPAECS | 0.296 nM | 1.75 nM |  | 0.185 nM | 2.51 nM |  |
| 抗PDL1×IGF1R双特异性抗体 D31-4 (bispecific antibody, human IgG1, lambda, A12 IgG1 with anti-PDL1 scFv1 at the N-terminus of each heavy chain) heavy: not shown light: SSELTQDPAVSVALGQTVRITCQGDSLRSYYATWYQQKPGQAPILVIYGENKRPSGIPDRFSGSSSGNTASLTITGAQAEDEADYYCKSRDGSGQHLVFGGGTKLTVLGQPKAAPSVTLFPPSSEELQANKATLVCLISDFYPGAVTVAWKADSSPVKAGVETTTPSKQSNNKYAASSYLSLTPEQWKSHRSYSCQVTHEGSTVEKTVAPAECS | 0.249 nM | 1.31 nM |  | 0.249 nM | 16.5 nM |  |
| 抗PDL1×IGF1R双特异性抗体 D31-3 (bispecific antibody, human IgG1, lambda, A12 IgG1 with anti-PDL1 scFv2 at the N-terminus of each heavy chain) heavy: not shown light: SSELTQDPAVSVALGQTVRITCQGDSLRSYYATWYQQKPGQAPILVIYGENKRPSGIPDRFSGSSSGNTASLTITGAQAEDEADYYCKSRDGSGQHLVFGGGTKLTVLGQPKAAPSVTLFPPSSEELQANKATLVCLISDFYPGAVTVAWKADSSPVKAGVETTTPSKQSNNKYAASSYLSLTPEQWKSHRSYSCQVTHEGSTVEKTVAPAECS | 0.301 nM | 1.83 nM |  | 0.315 nM | 47.7 nM |  |
| 抗PDL1×IGF1R双特异性抗体 D31-5 (bispecific antibody, human IgG1, kappa, Anti-PDL1 IgG1 with A12 scFv1 (VL-L1-VH) at the C-terminus of each heavy chain) heavy: not shown light: EIVLTQSPDFLSVTPKEKVTITCRASQSIGTTIHWYQQKPDQSPKLLIKYASQSFSGVPSRFSGSGSGTDFTLTINSVEAEDAATYYCQQSNSWPLTFGAGTKLEIKRTVAAPSVFIFPPSDEQLKSGTASVVCLLNNFYPREAKVQWKVDNALQSGNSQESVTEQDSKDSTYSLSSTLTLSKADYEKHKVYACEVTHQGLSSPVTKSFNRGEC | 0.0858 nM | 0.401 nM |  | 0.137 nM | 39.6 nM |  |
| 抗PDL1×IGF1R双特异性抗体 D31-6 (bispecific antibody, human IgG1, kappa, Anti-PDL1 IgG1 with A12 scFv2 (VH-L1-VL) at the C-terminus of each heavy chain) heavy: not shown light: EIVLTQSPDFLSVTPKEKVTITCRASQSIGTTIHWYQQKPDQSPKLLIKYASQSFSGVPSRFSGSGSGTDFTLTINSVEAEDAATYYCQQSNSWPLTFGAGTKLEIKRTVAAPSVFIFPPSDEQLKSGTASVVCLLNNFYPREAKVQWKVDNALQSGNSQESVTEQDSKDSTYSLSSTLTLSKADYEKHKVYACEVTHQGLSSPVTKSFNRGEC | 0.079 nM | 0.336 nM |  | 0.0961 nM | 67 nM |  |
| 抗PDL1×IGF1R双特异性抗体 D31-7 (bispecific antibody, human IgG1, kappa, Anti-PDL1 IgG1 with A12 scFv2 at the N-terminus of each heavy chain) heavy: not shown light: EIVLTQSPDFLSVTPKEKVTITCRASQSIGTTIHWYQQKPDQSPKLLIKYASQSFSGVPSRFSGSGSGTDFTLTINSVEAEDAATYYCQQSNSWPLTFGAGTKLEIKRTVAAPSVFIFPPSDEQLKSGTASVVCLLNNFYPREAKVQWKVDNALQSGNSQESVTEQDSKDSTYSLSSTLTLSKADYEKHKVYACEVTHQGLSSPVTKSFNRGEC | 0.0749 nM | 0.496 nM |  | 0.0648 nM | 20.5 nM |  |
| 抗PDL1×IGF1R双特异性抗体 D31-8 (bispecific antibody, human IgG1, kappa, Anti-PDL1 IgG1 with A12 scFv1 at the N-terminus of each heavy chain) heavy: not shown light: EIVLTQSPDFLSVTPKEKVTITCRASQSIGTTIHWYQQKPDQSPKLLIKYASQSFSGVPSRFSGSGSGTDFTLTINSVEAEDAATYYCQQSNSWPLTFGAGTKLEIKRTVAAPSVFIFPPSDEQLKSGTASVVCLLNNFYPREAKVQWKVDNALQSGNSQESVTEQDSKDSTYSLSSTLTLSKADYEKHKVYACEVTHQGLSSPVTKSFNRGEC | 0.0572 nM | 0.391 nM |  | 0.0465 nM | 5.62 nM |  |
| 抗IGF1R单抗 A12 (antibody, human IgG1, lambda, V domains shown, also called anti-IGF1RmAb; 抗IGF1R抗体A12) VH: EVQLVQSGAEVKKPGSSVKVSCKASGGTFSSYAISWVRQAPGQGLEWMGGIIPIFGTANYAQKFQGRVTITADKSTSTAYMELSSLRSEDTAVYYCARAPLRFLEWSTQDHYYYYYMDVWGKGTTVTVSS VL: SSELTQDPAVSVALGQTVRITCQGDSLRSYYATWYQQKPGQAPILVIYGENKRPSGIPDRFSGSSSGNTASLTITGAQAEDEADYYCKSRDGSGQHLVFGGGTKLTVLG |  |  |  | 0.157 nM and 0.0676 nM | 6.77 nM and 14 nM | no binding (tested: 起始浓度为30nM) |
